The results in this text go back to US20210154269A1.

Assay [1] deals with human CD47 (human) (UniProt Q08722). In words: affinity for human CD47; method not stated.
Assay [2] has the same target. In words: in vitro receptor occupancy assay, at ~1 µM.
Assay [3] shares this target. Description: cell-based or functional assay.

A word on the Kd: it is the constant that tells how readily two partners part at equilibrium. A higher Kd goes with lower affinity. The substance “TTI-621 (from UniProt P78324 31-149) (Fc fusion)” showed a dissociation constant (Kd) with human CD47 (human) [1] of 500 nM. Moreover, the receptor occupancy in the assay with human CD47 (human) [2] was 40%. For the same substance, in the assay with human CD47 (human) [3], the EC50, PathHunter SIRPα Signaling Bioassay is above 0.15 µg/mL and the inhibition of SIRPα signaling at 1 nM is below 10%.

“TTI-622 (from UniProt P78324 31-149) (Fc fusion)” showed an equilibrium dissociation constant (Kd) in the assay with human CD47 (human) [1] of 500 nM. In addition, the receptor occupancy in the assay with human CD47 (human) [2] is 40%. Also, in the assay with human CD47 (human) [3], the EC50, PathHunter SIRPα Signaling Bioassay was above 0.15 µg/mL and the inhibition of SIRPα signaling at 1 nM is below 10%.
